Relative activity (%) data for two proteins are collected here from patent US20060172367.

Series [1] concerns the target T1, fructosyl valine-histidine-leucine.
T1 chain: VHL

For series [2], the target named is T2, fructosyl valine-histidine.
T2 chain: VH

Series [3] has as its target T3, fructosyl valine-leucine-serine.
T3 chain: VLS

For another series, the target named is T4, fructosyl valine-leucine.
T4 chain: VL

B1: fructosylamine oxidase FAO-Q2 from Fusarium proliferatum GL2-1 strain (protein)
chain: MARTVAPLNKDSGILIVGGGTWGCSTALHLARRGYTNVTVLDVNRIPSPISAGHDVNKLSNRLGTSDSKGDDEDSIWKALTYAAAQGWLHDPIFQPFCHNTGAVMAGSTPKSIKQLVEDEIGDDIDQYTPLNTAEDFRRTMPERILTGDFLGWKGFYKPRGSGWVHARKAMKAAFEESQRLGVKFITGSPEGKVESLVFEAGDVKGAKTADGKEHRADRTILSAGASAEFSLDFENQIRPTAWTLGHIQMTAEETKLYKELPPLFNINQGFFMEPDEDLHQLKMCDEHPGYCNWVDKPGSKYPQSIPFAKYQVPIEAERRMKQFLKDIMPQLADRPLVHARICWCADTQDRMFLITYHPRHPSLVIASGDCGTGYKHITSIGKFISDCMEGTLEERFAKFWRWRPEKFTEFWGKDPLDRFGADDKIMDLPKSDAEGWTDIQNDK
On to B1, for which the Relative activity (%) in series [1] amounted to 0.6%; in series [2] it was 2.4%; in series [3], 3.3%; with fructosyl valine-leucine it was 0.6%.

B2: fructosylamine oxidase FAO-Q1 from Fusarium proliferatum GL2-1 strain (protein)
chain: MAGPPSSILIVGSGVFGLGTAWALAKRSHFSNTSITVVDDCAGQFPPEDAASVDSSRIVRADYSDPYYAALAAEAQKEWRKQGDHEVGGQGRYSESGFVLCASETPEDFKLKKSGMDYTKESAKNVELIAKETGLPVDKIQKLESTKALQEFLGTDGYPGDWGYLNGNSGWADAGEGMKWLYKQAQATGRIHFVNGKVTELVTEGDRVIGAKLSDSKILKADVVMVAAGAWSGSLVDLRGRTEATGHAVAYMDITPEEQKRLDNFPVVLNLSTGLFLIPPRNNVLKAARHTFGYINPVKINNALPPSPNDKREPFIASQPYTSRNDSSNPLTVEADKDLRRALTDLCPIRGLETRPWKEARICWYSDTRDGEWLIDYHPGWKGLFVATGDSGHGFKFLPNLGEKIVDVMQGQGGKLGEKWRWKEIQNDGVGRETNGVYTGLVTEDGSRGGRPLVLCDELEKGRALIGNTKAKL
Protein B2 showed a Relative activity (%) with fructosyl valine-leucine of 1.1%.
